Data reported in the DeepSol protein solubility set.

assay: soluble on expression in E. coli; label from the status in PepcDB or PDB records

Sequence	soluble on expression in E. coli
MTAAADLILYNGDVHVLTDTATPADPAHSAVAIRDGRIVGLSNDYDAAFRADTGTREVDLGGRVVVPGFVDAHTHLAVLGKHGVHADLRGADSPAAATARLAERARETDAGWVLGFGYDDSQWSAALSTADLDAVSEARPVAAIREDMHTATVNGVALAEHGDEMPAADVGEDGRIVEDAVEAVYDATDPDLAGTRPLIEAAQREANERGVTAVHEMVRDSHAPRVYRELDAAGELSVRVRLNYWADHLDAVLETGLVTNHGGGMVTVGGIKTYTDGSLGGRTAKLSEPYADAPGETGQWVVDPSALAALVERADDAGLQVVAHAIGDAAVDAVLDAYEDAGERRHRIEHAELASDDAIERMADLGVVASVQPNFLKWAGSGGLYADRLGTARREASNRFADMLDAGVDVAFGSDCMPLAPLVGVHHAVTAPADAQRLSVTAALRAYTSGGARAGCREDEQGVIREGALADLTVLDASPWEHADAIADEVGVSMTVVDGAVVYDGRLEHHHHHH	not soluble
MTTLSMENFAQLFEESLTLHDMRVGEVITAEVVAVDSNFVTVNAGLKSESLIPAEEFKNDQGVVEVAIGDFVTVAIDALENGFGETKLSREKAKRMAAWVELEEALEAGTILSGMISGKVKGGLTVMVNGIRAFLPGSLVDVRPVKDTTPYENKQIEFKVIKLDRKRNNVVVSRRSVLEETLGEERKALLETLKEGAVIKGIVKNITDYGAFVDLGGIDGLLHITDLAWRRVKHPSEVLAVGDEVEAKVLKFDQEKNRVSLGLKQLGEDPWVGLSRRYPSGTRLFGKVTNLTDYGAFVEIEQGIEGLVHVSEMDWTNKNVHPSKVVQVGDEVEVMILEIDEDRRRISLGMKQCLANPWNEFADNFHKGDKLKGAIKSITDFGVFVGLPGGIDGLVHLSDLSWNEAGEEAVRKFKKGDEVEAVVLSIDVEKERISLGIKQLEGDPFNNFVAMNDKGALVKGTVKSVDAKGAVIALDADVEGYLRASELSRDRVEDARSVLKDGDAVEAVIVAVDRKSRNISLSIKAKDAQEDNAALKSLAVDSASAGTTNLGALLKAKLSGSNE	soluble
EVVVIGYGTAKRKDITGSVATVNAEALTVVPVASATEALTGKMAGVQITTTEGSPDAEMKIRVRGGGSITGDNTPLFIVDGFPVESISDIPASDIEDMTVLKDASSTAIYGSRGANGVILVTTKSGK	not soluble
MISKHSSRLPIWVLSPREEQQARKNLKTETYKKCANFVQAMADCAKANGMKVFPTCDKQRDEMKSCLLFYQTDEKYLDGERDKIVLEKINKLEKLCQKQSSTK	not soluble
MSANKELQQGYSDYSAASDQAALLNRLITAMQKGELTDELLEHIPELGDAKKLNDKLKYRKSILEKSIAEQAAKNKKNGVKATSTSSPSSSTSAPAEKKAKKDGKTGGAPPKQAKKVDYVTVEDYGSSIFGRLQSLFKKAIEDAFPGLDVPLLLAETPNPQFGDYQCNSAMPIAAKLKANKINKRPGDVAKEIQAKLPTKIDFVEKIDVMPAGFINIFLNTDYLRRQISLLASEGVKLPKLTRKRVLVDFSSPNIAKEMHVGHLRSTIIGDSICRLFEAVGFDVLRVNHIGDWGTQFGMLIAHLYDRFPDFLKKLPDISDLQAFYKESKKRFDEDEQFKKRAYEYVVKLQSHDGDIVKAWNTICDVSKKYNQIVYNYLDIKIKDVGESFYQDKMIELVKWVKTNKPDMLREEDGRQIMFPTGCDIPLTVVKSDGGFTYDTSDLAALKYRMLEEKCDWNIYVVDSGQSLHLETVYAAGRDFGWYDESIQRVEHVAFGLVLGDDKKKFKTRSGETVRLLDLLSEGVKRATEKLIEKGRETAMSEEQLVAARDAVAFGCVKYADLSHTRTQDYVFSFDRMLEDRGNTAVYLLYAYTRIQSIFEKDEVKNVDLVKYIASTPTLPLDHPGEFKLAKQLLKLSDCVLLVLDSLMLHQMCDYVYQLATLFHDFYNECYVIENKEGEKPFVHMHRLALCDVTRKVMSTCFKILGLREVNKM	not soluble
SLSRRKPNPVIVADIRQAEGALAEIATIDRKVGEIEAQMNEAIDAAKARASQKSAPLLARRKELEDGVATFATLNKTEMFKDRKSLDLGFGTIGFRLSTQIVQMSKITKDMTLERLRQFGISEGIRIKEDVNKEAMQGWPDERLEMVGLKRRTTDAFYIEINREEVADTAA	soluble
SNAMKESNHLMDTPYSYLIRSIGMKLKTSADARLAELGLNSQQGRMIGYIYENQESGIIQKDLAQFFGRRGASITSMLQGLEKKGYIERRIPENNARQKNIYVLPKGAALVEEFNNIFLEVEESITKGLTKDEQKQLMSILIKVNRSM	soluble
MSLKVIICGAGQVGYGIAEQLSREDNEVSVIDTAAPLITAITETLDVRGYVGHGAHPDMLAKAGADQADMIIAVTLHDEINIVACEVAHALFSVPTKIARIRDQSYMKPEYADLFSRENMSIDVTISPEVEVGKMVLRRIAFPGATDVVRFAEDTIYMLAIECMEDCPVINTPLQQLSSLFPDLIATVVGVYRDGILKVAHSSEQLRVGDLAYVICQRQHARRTLSLFGHEEQEGHHHHHH	not soluble
MGSDKIHHHHHHMSLIHLQADHIRPLVYLHGKVDDHEVAFLEHLNGPPKNAVRVGNTVTFIEHDQTAYSVRAERIQGVLPPAFAGVISDLESGYQFVLGGRSRLAGRPSQLVRIIPNDDNRYSYQVWLDMDTYLPLRYDMLNLEKQLLEQVLVVELIVLDDAPAILREAYKQDWPEIMPQPQREQADNWQFKWLPQGFKILVKDNHRLIGSHEAVEYIALSDGLVNISVYVARAGETALPDELMTRNGLSLAAERVGNAEVVAVGKVPAETLSRIAKSITIE	not soluble
MGSDKIHHHHHHMPAALPIKPPFKPRDISIVGAGVAGASLALSLLRRGHKVTLYCADAAPGIGASGNRQGAIYPLLTPEDDHLTRLFVPAFLYAKRFVESLAHHPLPFDFCGVLQTGHDERATERIEKLLSKTWPKQVAVRVDADEANHIAGVAIDKGGIYYPQGGWVSPAKLCEAAIEEAKTMGLECHFDVNITSITRADEGWRLNTQTGEIDAHELVLATGHRITELAQTKSLQLAPFRGQVSHVPTRGKLEQLKTVLCAHGYFTPRDASSGSHCMGASYVRGDTSVEYREQEQQENLHKMQESYPGKDWVEYLDISEGSARAGIRMVSRDHLPMAGAAPDVAAIQTQYQAIGHGPKGAQYWQTHAAPVHPGLYIFSGLGSRGLSSGPLIAECLADSLSGTLPVLDGDVMEALNPNRMWLRKLKKGKALD	not soluble
MTSTGPETSETPGATTQRHGFGIDVGGSGIKGGIVDLDTGQLIGDRIKLLTPQPATPLAVAKTIAEVVNGFGWRGPLGVTYPGVVTHGVVRTAANVDKSWIGTNARDTIGAELGGQQVTILNDADAAGLAETRYGAGKNNPGLVVLLTFGTGIGSAVIHNGTLIPNTEFGHLEVGGKEAEERAASSVKEKNDWTYPKWAKQVIRVLIAIENAIWPDLFIAGGGISRKADKWVPLLENRTPVVPAALQNTAGIVGAAMASVADTTH	not soluble
AQGQRRAPLSVVFTEPQVASVGLSLRQIEDLYADQDAANYVVGQVSFEGQGRSRVMGKNKGLLNVYADRTSGEFLGAEMFGPAAEHIGHLLAWARQQQMTVQAMLTMPFYHPVIEEGLRTALRDAQQKLAIEKHDMNEFIMTHDNAMKLVI	not soluble
MKIKSNLKLRRIGNRHMIVEVSDSCVNLTNVYSLNGTAARLWEMVCNGEGRTAGELAEGLCKTYDVEYGRALRDVERQIEEWEKMGLLSRRGTGD	not soluble
EIEEIKITMDVLVASEDVMVTVTKEGYVKRTSLRSYAASNGELPGMKEGDYLLGRYEMNTQDTLLLFTKKGNYLYLPVHQLPDIRWKDNGQHVANLVTVDKDDDILTTLAVKEFSEE	soluble
MQPTETSQPAPSDQGRRLKDQLSESMSFSSQMKKEDDELSMKALSAFKAKEEEIEKKKMEIRERVQAQLGRVEDESKRLAMIREELEGFADPMRKEVTMVRKKIDSLDKELKPLGNTVQKKETEYKDALEAFNEKNKEKVELITKLQEGESEKFRFKKLEELSKNIDLTKP	not soluble
MAEVERQDKYLRQRNKYRFHIIPDGNCLYRAVSKTVYGDQSLHRELREQTVHYIADHLDHFSPLIEGDVGEFIIAAAQDGAWAGYPELLAMGQMLNVNIHLTTGGRLESPTVSTMIHYLGPEDSLRPSIWLSWLSNGHYDAVFDHSYPNPEYDNWCKQTQIQKKRDEELAKSMAISLSKMYIEQNACS	soluble
MGSDKIHHHHHHMPDKSLKKPFVHLIGAGPGDPGLITVKGRESLGRADVVIYDYLANDDLLRFARPDAELIYAGKIGGHHNREQWQINALLVEKALAGNVVARLKGGDSFVFGRGGEECEALVAAGIPFEIVPGVTAGIGVTAYAGIPLTHRGVTTSVTFVTGHEGHDKEVSQIDWEGLSLGSGTVVFYMGIKNLPQITANLMAHGRPPETPVALIRWGTRPEQEVLTGTLADIAEQARRTGFRAPAITVVGEVVRLREKLRWFDNRPLFGTSILVTRAADQAGEFGAMLGALGARVLECPTIAIVPPESWDNLDAAIASLDRFHWAVFTSVNAVRFFFERLAAAGKDSRALGNCRVCAVGPKTAAALAPFGIRPDLIPADYKGEGVVEVFRSEEIAGKRIIFPKGDRARDVIPQGLAELGGEVTAPVAYRNVTPDSLPAGVIAELEERRITCVTFTSSSTVENLAAILGENRFLHLLKGVTIAAIGPITARTCRELGLEVHVEPSKYTLAAMTDALVDFFSRSK	not soluble
MSLKTIAIDFETANEERGSACSVGLAWIEDGQIVRVEERLIRPRDMRFSPFNIAVHGIRPRDVEDAPEFPEVMEEFIDDFHGATMIAHNAAFDFSVMRASFDKYRLSYPDLSYLCSVKIARHVWPHLVSHKLNVIAHHLQLRFVHHNAAEDAVVCAAASIAAARALGVAHIRDLPEKIGEGHHHHHH	not soluble
MGHHHHHHSHMATSEILPSFVATMDASNFSFWQVLCSWLSNSPNYEEITKWYLGWKSMFSDQVLAHPSVKDKFNEALDIMNRAVSSNVGAYMQPGARENIAYLTHTERRKDFQYEAMQERREAENMAQRGIGVAASSVPMNFKDLIETKAEEHNIVFMPVIGKRHEGKQLYTFGRIVIYIDRGVVFVQGEKTWVPTSLQSLIDMAK	not soluble
MSLAPQRCHRFQSSAYRSNQWRYRGRCDSIQFAVDRRVFIAGLGLYGSSSGKAEYSVKIELKRLGVVLAQNLTKFMSDGSSNTFPVWFEHPVQVEQDTFYTASAVLDGSELSYFGQEGMTEVQCGKVAFQFQCSSDSTNGTGVQGGQIPELIFYAEGHHHHHH	soluble
MKAHVLFSGGKDSSLSAIILHNLGYEIQLVTVNFGVLDSYLHAEETAKIIGYSHKVELIDKELIEKSVDMILKDGYPGNGIQFVHKQVLEIISEKYDVIADGTRRDDRVPRLDHSELQSLEMRKNIQYVTPLMGFGHKTLRNLVNNYFIISEKESEELLKSDYETEIRELIRQRGIDPLEYFPKHIQSRVIGLKR	not soluble
MSLYLCEEHFKEYFERKVARTIEKYKLASKDERILVAVSGGKDSAVTAYVLKKLGYKIECLHLNLGIGEYSEKSEIYAKKQCEFIGAPLNIIRVKELLGYGIGEVRTSRPTCSYCGLTKRYIMNKFAYDNGFDAVATGHNLDDEASFLMNNLLHWNTEYLAKGGPLLPGEGKFVKKIKPLYELTEREVVAYAIAVGLEYIVEECPYARGATTLDMKEVLNELEEKRPGTKFNFVRGFLRKKKLFEPEVKGKDLKECKICGMPASGEICSFCKFWKLGKPLTFKIKEGHHHHHH	soluble
